In patent publication US20250064909A1 (MEDIMABBIO, published 2025):
Like-named read-outs stand apart in the source and are kept apart here.

T1: TIGIT on cells (human primary T cells, PBMC, NK cells; Promega TIGIT effector cells) (human) (UniProt Q495A1)
T1 sequence: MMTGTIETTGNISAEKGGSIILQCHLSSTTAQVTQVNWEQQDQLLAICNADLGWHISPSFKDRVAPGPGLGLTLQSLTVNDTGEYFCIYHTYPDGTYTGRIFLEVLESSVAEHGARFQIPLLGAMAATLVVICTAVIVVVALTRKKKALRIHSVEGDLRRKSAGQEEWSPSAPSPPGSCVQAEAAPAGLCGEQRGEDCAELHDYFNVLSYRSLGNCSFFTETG

T2: recombinant human TIGIT (Sino Biological) (human, UniProt Q495A1 22-138)
T2 construct: Bought protein; NP_776160.2; also called human TIGIT antigen; hTIGIT
T2 sequence: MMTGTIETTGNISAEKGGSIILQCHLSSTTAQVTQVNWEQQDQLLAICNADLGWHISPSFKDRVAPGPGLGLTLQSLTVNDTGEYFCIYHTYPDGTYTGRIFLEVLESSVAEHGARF

T3: recombinant human TIGIT (Acrobiosystems) (human, UniProt Q495A1 22-141)
T3 construct: Bought protein; also called hTIGIT; human TIGIT antigen
T3 sequence: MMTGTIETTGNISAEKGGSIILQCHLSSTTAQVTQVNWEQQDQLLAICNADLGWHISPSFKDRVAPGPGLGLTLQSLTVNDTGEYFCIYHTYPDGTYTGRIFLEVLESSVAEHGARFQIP

T4: TIGIT on cells (human primary T cells, PBMC, NK cells; Promega TIGIT effector cells) (human, UniProt Q495A1 22-244)
T4 sequence: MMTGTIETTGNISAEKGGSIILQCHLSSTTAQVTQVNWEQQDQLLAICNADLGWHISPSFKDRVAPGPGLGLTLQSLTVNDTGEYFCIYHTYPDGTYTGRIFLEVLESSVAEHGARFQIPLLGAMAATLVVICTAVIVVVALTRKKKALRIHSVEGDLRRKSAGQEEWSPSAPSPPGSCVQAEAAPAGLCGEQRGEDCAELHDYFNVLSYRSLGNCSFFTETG


Assays:
[1] = target: T1, TIGIT on cells (human primary T cells, PBMC, NK cells; Promega TIGIT effector cells) (human)
[2] = target: T2, recombinant human TIGIT (Sino …); assay: SPR single cycle kinetics; KD divided by KD of the VH0/Vκ0 chimeric antibody;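 note: biacore T200 SPR at 25 °C, IgG captured on anti-human chip, TIGIT analyte in four rising concentrations, 210 s association each, 900 s dissociation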
Protocol: (§1) The kinetic test was conducted at 25° C. using the Biacore T200 running Biacore T200 Control software V2.0.1 and Evaluation software V3.0 (GE Healthcare, Uppsala, Sweden).
(§2) To reduce non-specific binding to the reference surface, HBS-P+ (GE Healthcare, Uppsala, Sweden) supplemented with 1% BSA w/v (Sigma, Dorset, UK) was used as the running buffer and was also used for dilution of ligand and analyte. The supernatant containing IgG was diluted in the running buffer to 1 μg/mL. At the beginning of each cycle, the antibody was loaded onto Fc2, Fc3, and Fc4 on the anti-human sensor chip (GE Healthcare, Little Chalfont, UK). […] Then, the surface was allowed to stabilize.
(§3) To minimize potential mass transfer effects, recombinant human TIGIT (from Sino Biological) was used as the analyte and injected at a flow rate of 40 μl/min to obtain Single cycle kinetic data. […] For each of the four increasing antigen concentrations, the association phases were monitored for 210 seconds, and after the last antigen injection, a single dissociation phase was measured for 900 seconds. The sensor chip surface was regenerated by a single injection of 3 M MgCl₂.

[3] = target: T3, recombinant human TIGIT (Acrobiosystems); assay: SPR (Biacore T200), multi-cycle kinetics, purified IgG captured on anti-human IgG CM5 chip, TIGIT as analyte, 1:1 fit
Protocol: Kinetic experiments were performed at 25° C. using a Biacore T200 operated with Control software V2.0.1 and Evaluation software V3.0 (GE Healthcare, Uppsala, Sweden).
HBS-P+ (GE Healthcare, Uppsala, Sweden) supplemented with 1% BSA w/v (Sigma, Dorset, UK) was used as the running buffer and was also used for dilution of ligands and analytes. The purified leading antibodies were diluted in the running buffer to a final concentration of 1 μg/mL, and at the initiation of each cycle, were loaded onto Fc2, Fc3, and Fc4 sites on the anti-human IgG CM5 sensor chip (GE Healthcare, Little Chalfont, UK). The antibodies were captured at a flow rate of 10 μl/min until a response level (RL) of ˜150 RU was achieved, followed by a stabilization period.
To minimize potential mass transfer effects, recombinant human TIGIT (Acrobiosystems, China) was introduced as the analyte at a flow rate of 50 μl/min to obtain multi-cycle kinetic data. […] For each concentration, association phases were monitored for 240 seconds, followed by 900 seconds of monitoring the dissociation phase. The sensor chip surface was regenerated between kinetic cycles by injecting 3M MgCl₂ twice. To ensure the stability of both the surface and the analyte across kinetic cycles, repetitive injections of blank and a single concentration of the analyte were programmed into the kinetic run.

[4] = target: T2, recombinant human TIGIT (Sino …); assay: SPR (Biacore T200), single cycle kinetics, IgG from supernatant captured on anti-human chip, TIGIT as analyte, 1:1 fit;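 note: measured at 25 °C in HBS-P+ with 1% BSA, four ascending TIGIT concentrations, 210 s association per step, one final 900 s dissociation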
Protocol: as §1, §2, §3

[5] = target: T4, TIGIT on cells (human primary T cells, …); assay: cell-based or functional assay
[6] = target: T4, TIGIT on cells (human primary T cells, …); assay: cell-based or functional assay; remark: listed apart in the source
[7] = target: T4, TIGIT on cells (human primary T cells, …); assay: cell-based or functional assay; remark: listed apart in the source
[8] = target: T4, TIGIT on cells (human primary T cells, …); assay: cell-based or functional assay; remark: listed apart in the source
[9] = target: T1, TIGIT on cells (human primary T cells, PBMC, NK cells; Promega TIGIT effector cells) (human); remark: listed apart in the source
[10] = target: T1, TIGIT on cells (human primary T cells, PBMC, NK cells; Promega TIGIT effector cells) (human); remark: listed apart in the source

Row | Molecule | Relative KD [2] | Kd [4] | koff [4] | kon [4] | further results
1 | MBSA43 control (antibody) |  |  |  |  | EC50, NFAT reporter luminescence (TIGIT effector cells + CD155 aAPC/CHO-K1 cells; blocked ligand PVR/CD155) [1]: 1.24 µg/mL
2 | 7A6 VH5/Vκ4 humanized antibody (human IgG1, kappa) (antibody, V domains shown, Tested as IgG in supernatant of transiently transfected HEK293 EBNA cells) VH: QVQLQESGPGLVKPSQTLSLTCTVTGYSITSDYAWNWIRQPPGKGLEWMGYISYSGSARYNPSLKSRVTISVDTSKNQFSLKLSSVTAADTAVYYCARKGYPAYFAYWGQGTLVTVSS VL: DIQMTQSPSSLSASVGDRVTITCRASQDVSTAVAWYQQKPGQAPRLLIYSASYRYTGVPDRFSGSGSGTDFTLTISSLQAEDVAVYYCQHHYSTPYTFGQGTKLEIKR | 2.33 | 1.52 nM | 0.00181 s⁻¹ | 1.19e+06 M⁻¹ s⁻¹ | 
3 | 7A6 VH5/Vκ2 humanized antibody (human IgG1, kappa) (antibody, V domains shown, Tested as IgG in supernatant of transiently transfected HEK293 EBNA cells) VH: QVQLQESGPGLVKPSQTLSLTCTVTGYSITSDYAWNWIRQPPGKGLEWMGYISYSGSARYNPSLKSRVTISVDTSKNQFSLKLSSVTAADTAVYYCARKGYPAYFAYWGQGTLVTVSS VL: DIVMTQSPSSLSASVGDRVSITCKASQDVSTAVAWYQQKPGQAPRLLIYSASYRYTGVPDRFTGSGSGTDFTLTISSLQAEDVAVYYCQHHYSTPYTFGQGTKLEIKR | 2.55 | 1.66 nM | 0.00204 s⁻¹ | 1.23e+06 M⁻¹ s⁻¹ | 
4 | TIG1 Arcus (antibody, from another filing, V domains shown) VH: DVQLVESGGGLVQPGGSRKLSCAASGFTFSNFGMHWVRQAPEKGLEWVAFISSGSSSIYYADTVKGRFTISRDNPKNTLFLQMTSLRSEDTAMYYCARMRLDYYAMDYWGQGTSVTVSS VL: DVQITQSPSYLAASPGETITINCRASKSISKYLAWYQEKPGKTNKLLIYSGSTLQSGIPSRFSGSGSGTDFTLTISSLEPEDFAMYYCQQHNEYPWTFGGGTKLEIK |  |  |  |  | EC50, NFAT reporter luminescence (TIGIT effector cells + CD155 aAPC/CHO-K1 cells; blocked ligand PVR/CD155) [1]: 3.74 µg/mL; EC50 of the mixture with pembrolizumab (both antibodies at the same concentration), NFAT reporter luminescence (PD-1+TIGIT+ effector cells + PD-L1+CD155 aAPC/CHO-K1 cells) [9]: 0.611 µg/mL; EC50 of the mixture with nivolumab (both antibodies at the same concentration), NFAT reporter luminescence (PD-1+TIGIT+ effector cells + PD-L1+CD155 aAPC/CHO-K1 cells) [10]: 0.923 µg/mL

Continued by falling Kd [4], values first:

Row | Relative KD [2] | Kd [4] | koff [4] | kon [4] | Molecule | further results
5 | 2.32 | 1.51 nM | 0.00189 s⁻¹ | 1.25e+06 M⁻¹ s⁻¹ | 7A6 VH5/Vκ3 humanized antibody (human IgG1, kappa) (antibody, V domains shown, Tested as IgG in supernatant of transiently transfected HEK293 EBNA cells) VH: QVQLQESGPGLVKPSQTLSLTCTVTGYSITSDYAWNWIRQPPGKGLEWMGYISYSGSARYNPSLKSRVTISVDTSKNQFSLKLSSVTAADTAVYYCARKGYPAYFAYWGQGTLVTVSS VL: DIQMTQSPSSLSASVGDRVSITCKASQDVSTAVAWYQQKPGQAPRLLIYSASYRYTGVPDRFSGSGSGTDFTLTISSLQAEDVAVYYCQHHYSTPYTFGQGTKLEIKR | 
6 | 1.92 | 1.25 nM | 0.0017 s⁻¹ | 1.36e+06 M⁻¹ s⁻¹ | 7A6 VH5/Vκ5 humanized antibody (human IgG1, kappa) (antibody, V domains shown, Tested as IgG in supernatant of transiently transfected HEK293 EBNA cells) VH: QVQLQESGPGLVKPSQTLSLTCTVTGYSITSDYAWNWIRQPPGKGLEWMGYISYSGSARYNPSLKSRVTISVDTSKNQFSLKLSSVTAADTAVYYCARKGYPAYFAYWGQGTLVTVSS VL: DIQMTQSPSSLSASVGDRVSITCKASQDVSTAVAWYQQKPGQAPRLLIYSASYRYTGVPDRFSGSGSGTDFTLTISSLQPEDFATYYCQHHYSTPYTFGQGTKLEIKR | 
7 | 1.41 | 0.922 nM | 0.00162 s⁻¹ | 1.76e+06 M⁻¹ s⁻¹ | 7A6 VH4/Vκ5 humanized antibody (human IgG1, kappa) (antibody, V domains shown, Tested as IgG in supernatant of transiently transfected HEK293 EBNA cells) VH: QVQLQESGPGLVKPSQTLSLTCTVTGYSITSDYAWNWIRQPPGKGLEWMGYISYSGSARYNPSLKSRVTISRDTSKNQFSLKLSSVTAADTAVYYCARKGYPAYFAYWGQGTLVTVSS VL: DIQMTQSPSSLSASVGDRVSITCKASQDVSTAVAWYQQKPGQAPRLLIYSASYRYTGVPDRFSGSGSGTDFTLTISSLQPEDFATYYCQHHYSTPYTFGQGTKLEIKR | 
8 | 1.34 | 0.871 nM | 0.00161 s⁻¹ | 1.85e+06 M⁻¹ s⁻¹ | anti-TIGIT 7A6 VH3/Vk5 humanized antibody (human IgG1, kappa) (antibody, V domains shown, also called VH3Vκ5; 7A6 VH3/Vk5-IgG1) VH: QVQLQESGPGLVKPSQTLSLTCTVTGYSITSDYAWNWIRQPPGKGLEWMGYISYSGSARYNPSLKSRVTISRDTSKNQFSLKLSSVTAEDTATYYCARKGYPAYFAYWGQGTLVTVSS VL: DIQMTQSPSSLSASVGDRVSITCKASQDVSTAVAWYQQKPGQAPRLLIYSASYRYTGVPDRFSGSGSGTDFTLTISSLQPEDFATYYCQHHYSTPYTFGQGTKLEIKR | EC50, NFAT reporter luminescence (TIGIT effector cells + CD155 aAPC/CHO-K1 cells; blocked ligand PVR/CD155) [5]: 0.521 µg/mL; EC50 of the mixture with nivolumab (both antibodies at the same concentration), NFAT reporter luminescence (PD-1+TIGIT+ effector cells + PD-L1+CD155 aAPC/CHO-K1 cells) [6]: 0.594 µg/mL; EC50 of the mixture with pembrolizumab (both antibodies at the same concentration), NFAT reporter luminescence (PD-1+TIGIT+ effector cells + PD-L1+CD155 aAPC/CHO-K1 cells) [6]: 0.38 µg/mL; EC50 of the mixture with pembrolizumab (both antibodies at the same concentration), NFAT reporter luminescence (PD-1+TIGIT+ effector cells + PD-L1+CD155 aAPC/CHO-K1 cells) [7]: 0.399 µg/mL; EC50 of the mixture with nivolumab (both antibodies at the same concentration), NFAT reporter luminescence (PD-1+TIGIT+ effector cells + PD-L1+CD155 aAPC/CHO-K1 cells) [8]: 0.581 µg/mL; Kd [3]: 0.0867 nM; koff [3]: 0.000177 s⁻¹; kon [3]: 2.04e+06 M⁻¹ s⁻¹
9 | 1.32 | 0.858 nM | 0.00124 s⁻¹ | 1.45e+06 M⁻¹ s⁻¹ | 7A6 VH5/Vκ1 humanized antibody (human IgG1, kappa) (antibody, V domains shown, Tested as IgG in supernatant of transiently transfected HEK293 EBNA cells) VH: QVQLQESGPGLVKPSQTLSLTCTVTGYSITSDYAWNWIRQPPGKGLEWMGYISYSGSARYNPSLKSRVTISVDTSKNQFSLKLSSVTAADTAVYYCARKGYPAYFAYWGQGTLVTVSS VL: DIVMTQSHSFLSASVGDRVSITCKASQDVSTAVAWYQQKPGQAPELLIYSASYRYTGVPDRFTGSGSGTDFTLTISSLQAEDVAVYYCQHHYSTPYTFGQGTKLEMKR | 
10 | 1 | 0.652 nM | 0.0016 s⁻¹ | 2.46e+06 M⁻¹ s⁻¹ | 7A6 VH0/Vκ0 chimeric antibody (human IgG1, kappa) (antibody, V domains shown, Mouse 7A6 variable regions on human IgG1/kappa constant regions; also called VH0/Vk0; 7A6 VH0Vk0) VH: DVQLQESGPGLVKPSQSLSLTCTVTGYSITSDYAWNWIRQFPGNKLEWMGYISYSGSARYNPSLKSRISITRDTSMNQFFLQLNSVTAEDTATYYCARKGYPAYFAYWGQGTLVTVSS VL: DIVMTQSHKFMSTSVGDRVSISCKASQDVSTAVAWYQQKPGQSPELLIYSASYRYTGVPDRFTGSGSGTDFTFTISSVQAEDLAVYYCQHHYSTPYTFGGGTKLEMKR | Kd [3]: 0.077 nM; koff [3]: 0.000176 s⁻¹; kon [3]: 2.28e+06 M⁻¹ s⁻¹
